In publication PMC2811425:

How the values were obtained:
CC(=O)C(=O)O = experiment: cells, lysate or membranes
C[C@H](O)C(=O)O = experiment: cells, lysate or membranes

MCT1 (Rattus norvegicus) was tested. Which Km (CC(=O)C(=O)O) did it give?
Its Km is 1.2 ± 0.2 mM.

And the Km (C[C@H](O)C(=O)O)?
Its Km is 5.7 ± 1.2 mM.
